Assay results from article PMC5389482.

System: ParF (plasmid TP228 (segregation module))
Experiment: fluorescence polarization
Conditions: 5 mM ATP, 5 mM Mg acetate, 150 mM K glutamate; 150 mM potassium glutamate (50-350 mM in salt series), pH 7.5, 5 mM magnesium acetate, 5 mM ATP or ADP, 25 C, 1 nM DNA

AATTACTCAATTACTCAATT (double strand) [20-mer]
Kd: 156 nM
